From the supplement of paper PMC10201428
± gives the standard deviation of the averaged measurements.

Each sequence was assayed on VchCAST RNA-guided transposition machinery (E. coli BL21(DE3) host, lacZ target) (assay: relative integration efficiency (T-RL orientation) vs wild-type transposon end (log2 (normalized fold change)); transposon end mutated: right end (5 bp flank + 75 bp right end); higher = more efficient transposition).
Method in brief: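 Barcoded pools of 1549 left-end or 1849 right-end transposon variants were cloned into a pUC57 mini-transposon donor. Each pool was co-transformed with a T7-driven effector plasmid (CRISPR array, tniQ-cas8-cas7-cas6, tnsA-tnsB-tnsC) into E. coli BL21(DE3) and plated with 0.1 mM IPTG at 37°C for 18 h. Input plasmids and genomic integration junctions were PCR-amplified and Illumina-sequenced, with two biological output replicates and four wild-type barcodes as reference. Relative integration efficiency is output/input barcode abundance fold change, normalised to wild-type barcodes and log-transformed.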

Which “relative integration efficiency (log2)” value does the source give for “ACATTTGTTGATACAACCATAAAATGATAATTACACCCATAAATTGATAATTATCAAAACACCCATAAATTGATATTGCCTCTGATCATAGTCAGACCAACATTGCTACGACCCGTATTCGCACCGA” here?
The value was -0.514 ± 0.17.

With “ACATTTGTTGATACAACCATAAACGGATAATTACACCCATAAATTGATAATTATCACACCCATAAATTGATATTGCCTCTGATCATAGTCAGACCAACATTGCTACGACCCGTATTCGCACCGACAC” as the sequence, how does the “relative integration efficiency (log2)” value read?
Its value is -0.642 ± 0.01.

“ACATTTGTTGATACAACCATAAGTTGATATTTTCAACCATAAAGTGATATTTATCACACCCATAAATTGATAATTACTCTGATCATAGTCAGACCAACATTGCTACGACCCGTATTCGCACCGACAC” was tested. Which “relative integration efficiency (log2)” value did it give?
Its value is -0.109 ± 0.07.

How did the “relative integration efficiency (log2)” value turn out when “ACATTTGTTGATACAACCATAAAATCATAATTACACCCATAAATTGATAATTATCCCACCCAATTTAACTATAACGCTCTGATCATAGTCAGACCAACATTGCTACGACCCGTATTCGCACCGACAC” was run?
The value was -2.19 ± 0.14.

Which “relative integration efficiency (log2)” value does the source give for “ACATTTGTTGATACAACCATAAAATGATCCTTACACCCATAAATTGATAATTATCACACCCATAAATTGATATTGCCTCTGATCATAGTCAGACCAACATTGCTACGACCCGTATTCGCACCGACAC” here?
The value was -1.03 ± 0.14.

Which “relative integration efficiency (log2)” value does the source give for “ACATTTGTTGATACAACCAATTTATGATAATTACACCCATAAATTGATAATTATCACACCCATAAATTGATATTGCCTCTGATCATAGTCAGACCAACATTGCTACGACCCGTATTCGCACCGACAC” here?
The value was -0.308 ± 0.066.

With “ACCGTTGTTGATACAACCATAAAATGATAATTACACCCATAAATTGATAATTATCACACCCATAAATTGATATTGCCTCTGATCATAGTCAGACCAACATTGCTACGACCCGTATTCGCACCGACAC” as the sequence, how does the “relative integration efficiency (log2)” value read?
The value was -0.00193 ± 0.024.

“ACATTTCTGGATACAACCATAAAATGATAATTACACCCATAAATTCATCATTATCACACCCAATTTAACTATAACGCTCTGATCATAGTCAGACCAACATTGCTACGACCCGTATTCGCACCGACAC” was tested. Which “relative integration efficiency (log2)” value did it give?
The value was -3.59 ± 0.54.

With “ACATTTGTTGATACAACCATAAAATGATAATTACACCCATAAATTGATAATTATCCACAAACGCCCGGTCGCGGTAAGAGGATCATAGTCAGACCAACATTGCTACGACCCGTATTCGCACCGACAC” as the sequence, how does the “relative integration efficiency (log2)” value read?
Its value is -0.795 ± 0.075.

How did the “relative integration efficiency (log2)” value turn out when “ACATTTGTTGATACAACCATAAGTTGATATTTTCACCCATAAATTGATATTGCTCACAACCATATATTGATATCTCCTCTGATCATAGTCAGACCAACATTGCTACGACCCGTATTCGCACCGACAC” was run?
The value was -0.904 ± 0.14.

How did the “relative integration efficiency (log2)” value turn out when “ACATTTGTTGATACACCCATAAATTGATATTGCCAACCATAAAGTGATATTTATCAGTGGGTATTTAACTATAACGCTCTGATCATAGTCAGACCAACATTGCTACGACCCGTATTCGCACCGACAC” was run?
The value was -1.12 ± 0.16.

Which “relative integration efficiency (log2)” value does the source give for “ACATTTGTTGATACAACCCGAAAATGATAATTACACCCATAAATTGATAATTATCACACCCATAAATTGATATTGCCTCTGATCATAGTCAGACCAACATTGCTACGACCCGTATTCGCACCGACAC” here?
The value was -3.8 ± 0.095.

How did the “relative integration efficiency (log2)” value turn out when “ACATTTGTTGATACAACCATAAAATGATAATTCCACCCCTACATTGATAATTATCACACCCAATTTAACTATAACGCTCTGATCATAGTCAGACCAACATTGCTACGACCCGTATTCGCACCGACAC” was run?
Its value is -3.18 ± 0.52.

With “ACATTTGTTGATACAACCATAAAATGATAATTACTCTGATCATAGTCAGACCAACATTGCTACGACCCGTATTCGCACCGACACAACGACTATCACCCATAAATTGATAATTATCAGTGGGTATTTA” as the sequence, how does the “relative integration efficiency (log2)” value read?
The value was -1.16 ± 0.15.

“ACATTTGTTGATAAAACCATACGTTGATTTTACGAAACCATACGCTGAAATAATCACACCCATAAATTGATATTGCCTCTGATCATAGTCAGACCAACATTGCTACGACCCGTATTCGCACCGACAC” was tested. Which “relative integration efficiency (log2)” value did it give?
Its value is -5.63 ± 0.18.

For “ACATTTGTTGATACAACCATTAAATGATAATTACACCCATAAATTGATAATGATGACACCGAATTTAACTATAACGCTCTGATCATAGTCAGACCAACATTGCTACGACCCGTATTCGCACCGACAC”, which “relative integration efficiency (log2)” value is on record?
Its value is -1.3 ± 0.18.

How did the “relative integration efficiency (log2)” value turn out when “ACATTTGTTGATACAACCATAAAATCATAATTACACCCATCAATTGATAATTATCACACCCAATTTAACTATAACGCTCTGATCATAGTCAGACCAACATTGCTACGACCCGTATTCGCACCGACAC” was run?
The value was -4.01 ± 0.22.

With “ACATTTGTGGATACAACCATAAAATGATAATTACACCCATAAATGGATAATTATCACCCCCAATTTAACTATAACGCTCTGATCATAGTCAGACCAACATTGCTACGACCCGTATTCGCACCGACAC” as the sequence, how does the “relative integration efficiency (log2)” value read?
The value was -1.15 ± 0.23.

How did the “relative integration efficiency (log2)” value turn out when “ACATTTGTTGATACAACCATAAAATGATAATTACACCACGCCCGGTCGCCGGCGACACAAACGCCCGGTCGCGGTAAGAGGATCATAGTCAGACCAACATTGCTACGACCCGTATTCGCACCGACAC” was run?
Its value is -2.31 ± 0.082.

Which “relative integration efficiency (log2)” value does the source give for “ACATTTGTTGATACAACCATAAAGTGATATTTACAACCATAAAATGATAATTATCACACCCATAAATTGATAATTACTCTGATCATAGTCAGACCAACATTGCTACGACCCGTATTCGCACCGACAC” here?
The value was 0.346 ± 0.076.

For “ACATTTGTTGATACAACCATAAAATGATAATTACACCCATAAATTGATAATTATCACACCCATAACGGTCGCGGTAAGAGGATCATAGTCAGACCAACATTGCTACGACCCGTATTCGCACCGACAC”, which “relative integration efficiency (log2)” value is on record?
Its value is -0.752 ± 0.12.

Which “relative integration efficiency (log2)” value does the source give for “ACATTTGCTGATACTACCATTTAATGATAATAACACCCATAAAATGATAATTATCACACCCAATTTAACTATAACGCTCTGATCATAGTCAGACCAACATTGCTACGACCCGTATTCGCACCGACAC” here?
Its value is -2.31 ± 0.44.

How did the “relative integration efficiency (log2)” value turn out when “ACATTTGTTGATACCACCATCAAATGGTAATTCCACCCCTAAATTGATAATTATCACACCCAATTTAACTATAACGCTCTGATCATAGTCAGACCAACATTGCTACGACCCGTATTCGCACCGACAC” was run?
The value was -6.33 ± 0.84.

Which “relative integration efficiency (log2)” value does the source give for “ACATTTGTTGATACAACCATAAAATGATAATTACACCCATAAATTGATAATTATCACACCCATAAATTGATATTGCCTCTGGCTAGCACTATACCTAGGACTGAGCTAGCCGTCAACGCACCGACAC” here?
Its value is -4.7 ± 0.55.

“ACATTTGTTGATACAACCATAAAAGGATCATTACACCCATAAATTGATAATTATCACACCCCATTTAACTATAACGCTCTGATCATAGTCAGACCAACATTGCTACGACCCGTATTCGCACCGACAC” was tested. Which “relative integration efficiency (log2)” value did it give?
The value was -2.29 ± 0.32.

Which “relative integration efficiency (log2)” value does the source give for “ACATTTGTTGATACAACCATAAGTTGATATTTTCAACCATAAAATGATAATTATCACAACCATAAAGTGATATTTACTCTGATCATAGTCAGACCAACATTGCTACGACCCGTATTCGCACCGACAC” here?
Its value is 0.0134 ± 0.036.

With “ACATTTGTTGATACAACCATAAAATGATAATTACACCCATCCATTGATAATTATCACACCCATAAATTGATATTGCCTCTGATCATAGTCAGACCAACATTGCTACGACCCGTATTCGCACCGACAC” as the sequence, how does the “relative integration efficiency (log2)” value read?
The value was -1.21 ± 0.089.

With “ACATTTGTTGATACAACCATAAAAGTATAATTACACCCATAAATTGATAATTATCACACCCATAAATTGATATTGCCTCTGATCATAGTCAGACCAACATTGCTACGACCCGTATTCGCACCGACAC” as the sequence, how does the “relative integration efficiency (log2)” value read?
The value was -0.954 ± 0.16.

How did the “relative integration efficiency (log2)” value turn out when “ACATTTGTTGATACAACCATAAAATGATAATTACACCCATAATATGATAATTATCACACCCATAAATTGATATTGCCTCTGATCATAGTCAGACCAACATTGCTACGACCCGTATTCGCACCGACAC” was run?
The value was -0.297 ± 0.039.

For “ACATTTGTTGATACCACCATAAAATGGTAATTACACCCCTACATTGATAATTATCACACCCAATTTAACTATAACGCTCTGATCATAGTCAGACCAACATTGCTACGACCCGTATTCGCACCGACAC”, which “relative integration efficiency (log2)” value is on record?
Its value is -4.23 ± 0.31.

How did the “relative integration efficiency (log2)” value turn out when “ACATTTGTTGATACAACCATAAAATGATAATTCACCCATCAATTGATAATTATCACACCCCAATTTAACTATAACGCTCTGATCATAGTCAGACCAACATTGCTACGACCCGTATTCGCACCGACAC” was run?
The value was -3.27 ± 0.064.

Which “relative integration efficiency (log2)” value does the source give for “ACATTTGTTGATACACCCATAAATTGATAATTACACCCATAAATTGATATTGCTCACACCCATAAATTGATAATTACTCTGATCATAGTCAGACCAACATTGCTACGACCCGTATTCGCACCGACAC” here?
The value was -0.735 ± 0.34.
